The source of these data is PMC2933323 (Nature structural & molecular biology, 2010).

In assay [1] the target is Rb expressed from CMV-Rb in Saos-2 cells (UniProt P06400). Nature of the assay: co-IP.
Assay [2] deals with endogenous Rb of CV-1 cells (African green monkey (endogenous in CV-1)). The assay can be described thus: co-IP.
The target in assay [3] is catalytic subunit of protein phosphatase 1 (PP1c), α isoform (human) (UniProt P62136).
In assay [4] the target is catalytic subunit of protein phosphatase 1 (PP1c), α isoform (human, UniProt P62136 1-300). Nature of the assay: ITC.

A word on the Kd: it is the constant that tells how readily two partners part at equilibrium.

catalytic subunit of protein phosphatase 1 (PP1c), α isoform (human), sequence (P62136 1-300): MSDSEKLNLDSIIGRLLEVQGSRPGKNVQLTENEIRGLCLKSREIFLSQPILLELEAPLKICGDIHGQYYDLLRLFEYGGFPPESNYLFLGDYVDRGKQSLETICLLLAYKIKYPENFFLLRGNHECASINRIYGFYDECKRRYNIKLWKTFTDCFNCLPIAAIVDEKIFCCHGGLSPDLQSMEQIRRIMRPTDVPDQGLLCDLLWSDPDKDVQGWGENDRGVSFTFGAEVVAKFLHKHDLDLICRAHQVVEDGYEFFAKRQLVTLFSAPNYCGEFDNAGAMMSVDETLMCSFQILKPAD

Molecule “PP1 in transfected Saos-2 cells (exogenous myc-PP1c together with endogenous PP1) (from UniProt P62136 1-330) (enzyme)” returned a PP1 co-precipitated, percent of the immunoprecipitated Rb in assay [1] of 30%. As for endogenous PP1 of CV-1 cells (enzyme), the PP1 co-precipitated, percent of the immunoprecipitated Rb in assay [2] is 2%.

B1: phosRb^771–874 (domain or fragment)
chain: YASTRPPTLSPIPHIPRSPYKFPSSPLRIPGGNIYISPLKSPYKISEGLPTPTKMTPRSRILVSIGESFGTSEKFQKINQMVCNSDRVLKRSAEGSNPPKPLKK
Turning to B1, in assay [3], the apparent KM of dephosphorylation by PP1c (steady-state analysis) amounted to 30 µM.

B2: phosRb^771–928 (domain or fragment)
chain: YASTRPPTLSPIPHIPRSPYKFPSSPLRIPGGNIYISPLKSPYKISEGLPTPTKMTPRSRILVSIGESFGTSEKFQKINQMVCNSDRVLKRSAEGSNPPKPLKKLRFDIEGSDEADGSKHLPGESKFQQKLAEMTSTRTRMQKQKMNDSMDTSNKEEK
As for B2, the apparent KM of dephosphorylation by PP1c (steady-state analysis) in assay [3] stood at 6 µM. With KPLKKLRFDIEGS [Rb^870–882 peptide], in assay [4], the affinity, expressed as Kd, was 1200 nM.
